# Data taken from IntAct's records for PubMed 18046461.
# B1: Mitogen-activated protein kinase 8 (Rattus norvegicus (Rat)), P49185 (parent)
# chain: MSRSKRDNNFYSVEIADSTFTVLKRYQNLKPIGSGAQGIVCAAYDAILERNVAIKKLSRPFQNQTHAKRAYRELVLMKCVNHKNIIGLLNVFTPQKSLEEFQDVYIVMELMDANLCQVIQMELDHERMSYLLYQMLCGIKHLHSAGIIHRDLKPSNIVVKSDCTLKILDFGLARTAGTSFMMTPYVVTRYYRAPEVILGMGYKENVDLWSVGCIMGEMVCLKILFPGRDYIDQWNKVIEQLGTPCPEFMKKLQPTVRTYVENRPKYAGYSFEKLFPDVLFPADSEHNKLKASQARDLLSKMLVIDASKRISVDEALQHPYINVWYDPSEAEAPPPKIPDKQLDEREHTIEEWKELIYKEVMDLEERTKNGVIRGQPSPLGAAVINGSQHPVSSPSVNDMSSMSTDPTLASD
# B2: Mitogen-activated protein kinase 8 (Rattus norvegicus (Rat)), P49185 (parent)
# chain: B1 chain
# partner: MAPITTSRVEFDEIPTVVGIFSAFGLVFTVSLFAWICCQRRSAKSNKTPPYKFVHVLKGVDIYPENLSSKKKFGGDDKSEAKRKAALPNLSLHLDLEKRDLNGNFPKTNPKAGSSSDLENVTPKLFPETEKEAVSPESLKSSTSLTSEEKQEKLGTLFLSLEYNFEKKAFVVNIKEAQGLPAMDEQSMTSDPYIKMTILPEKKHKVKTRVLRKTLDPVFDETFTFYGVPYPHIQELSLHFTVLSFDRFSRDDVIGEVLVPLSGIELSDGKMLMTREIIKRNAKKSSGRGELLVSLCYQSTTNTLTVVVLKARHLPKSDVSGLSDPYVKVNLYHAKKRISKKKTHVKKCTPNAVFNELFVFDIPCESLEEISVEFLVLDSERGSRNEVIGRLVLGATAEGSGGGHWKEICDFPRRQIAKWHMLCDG
# How the values were obtained:
# jun_rat Jun, P17325 [1] = variants of: B1; settings: with jun_rat Jun
# jun_rat Jun, P17325 [2] = variants of: B1; settings: with jun_rat Jun; remark: listed apart in the source
# syt4_rat Syt4, P50232 [3] = variants of: B2; settings: with syt4_rat Syt4, P50232
# syt4_rat Syt4, P50232 [4] = variants of: B2; settings: with syt4_rat Syt4, P50232; remark: listed apart in the source
# syt4_rat Syt4, P50232 [5] = variants of: B2; settings: with syt4_rat Syt4, P50232; remark: listed apart in the source
Variant,"effect of a mutation on the interaction (jun_rat Jun, P17325 [1])","effect of a mutation on the interaction (jun_rat Jun, P17325 [2])","effect of a mutation on the interaction (syt4_rat Syt4, P50232 [3])","effect of a mutation on the interaction (syt4_rat Syt4, P50232 [4])","effect of a mutation on the interaction (syt4_rat Syt4, P50232 [5])"
D162T,disrupting interaction,,,,
D326N,disrupting interaction,decreasing interaction,,,
E331N,disrupting interaction,decreasing interaction,,,
E329N,disrupting interaction,decreasing interaction,,,
D326N,,,disrupting interaction,decreasing interaction,
D162T,,,disrupting interaction,,decreasing interaction
E329N,,,disrupting interaction,decreasing interaction,
E331N,,,disrupting interaction,decreasing interaction,
